How the values were obtained:
[1] = target: T1, vertebrate calmodulin (CaM) (vertebrate, UniProt P0DP23 1-149); assay: cryo-EM structure; Eag1-CaM complex purified with Ca2+, reconstituted into 90:5:5 POPC:POPG:cholesterol liposomes with 300 mM KCl; polarized with valinomycin and exchange of the external solution to 300 mM NaCl (a smaller dataset on unpolarized vesicles too); 10 mM Tris pH 8.0; conditions: both partners purified
T1 construct: vertebrate calmodulin, expressed from a separate vector without a tag; source: HEK293S GnTI- cells infected with rEag1 and CaM baculoviruses, co-purified with rEag1 in the presence of Ca2+

[2] = target: the molecule itself; assay: as above

binding result [1]: binds
B1: rat Eag1 with residues 773 to 886 truncated (rEag1) (natural protein, UniProt Q63472 1-962, looked up)
chain: MTMAGGRRGLVAPQNTFLENIVRRSNDTNFVLGNAQIVDWPIVYSNDGFCKLSGYHRAEVMQKSSACSFMYGELTDKDTVEKVRQTFENYEMNSFEILMYKKNRTPVWFFVKIAPIRNEQDKVVLFLCTFSDITAFKQPIEDDSCKGWGKFARLTRALTSSRGVLQQLAPSVQKGENVHKHSRLAEVLQLGSDILPQYKQEAPKTPPHIILHYCVFKTTWDWIILILTFYTAILVPYNVSFKTRQNNVAWLVVDSIVDVIFLVDIVLNFHTTFVGPAGEVISDPKLIRMNYLKTWFVIDLLSCLPYDVINAFENVDEGISSLFSSLKVVRLLRLGRVARKLDHYIEYGAAVLVLLVCVFGLAAHWMACIWYSIGDYEIFDEDTKTIRNNSWLYQLALDIGTPYQFNGSGSGKWEGGPSKNSVYISSLYFTMTSLTSVGFGNIAPSTDIEKIFAVAIMMIGSLLYATIFGNVTTIFQQMYANTNRYHEMLNSVRDFLKLYQVPKGLSERVMDYIVSTWSMSRGIDTEKVLQICPKDMRADICVHLNRKVFKEHPAFRLASDGCLRALAMEFQTVHCAPGDLIYHAGESVDSLCFVVSGSLEVIQDDEVVAILGKGDVFGDVFWKEATLAQSCANVRALTYCDLHVIKRDALQKVLEFYTAFSHSFSRNLILTYNLRKRIVFRKISDVKREEEERMKRKNEAPLILPPDHPVRRLFQRFRQQKEARLAAERGGRDLDDLDVEKGNALTDHTSANHSLVKASVVTVRESPATPVSFYPIPEQTLQATVLEVKHELKEDIKALNAKMTSIEKQLSEILRILMSRGSSQSPQDTCEVSRPQSPESDRDIFGAS
notes: rat Eag1 voltage-dependent K+ channel; construct corresponding to rat Eag1 with residues 773 to 886 truncated; Tetrameric channel (C4 symmetric up map); The C-terminal GFP-His6 tag was linked by a preScission protease site and removed; also called Eag channel; Eag Kv channel; not shown: GFP, C-terminal, cleaved; His6, C-terminal, cleaved
binding result [2]: binds

— PMC9674223, “Voltage-sensor movements in the Eag Kv channel under an applied electric field” (Proceedings of the National Academy of Sciences of the …, 2022)
